Here are results for three substances from doi:10.1101/2023.08.28.555187.

One experiment concerns the target decorin protein core (UniProt P07585). Put plainly: ELISA.
Another experiment has as its target soluble Fc-tagged VEGFR3. The experiment can be described thus: ELISA. For orientation: In an ELISA, binding on a coated surface is turned into a signal by an enzyme label.

decorin protein core, sequence (P07585 31-359): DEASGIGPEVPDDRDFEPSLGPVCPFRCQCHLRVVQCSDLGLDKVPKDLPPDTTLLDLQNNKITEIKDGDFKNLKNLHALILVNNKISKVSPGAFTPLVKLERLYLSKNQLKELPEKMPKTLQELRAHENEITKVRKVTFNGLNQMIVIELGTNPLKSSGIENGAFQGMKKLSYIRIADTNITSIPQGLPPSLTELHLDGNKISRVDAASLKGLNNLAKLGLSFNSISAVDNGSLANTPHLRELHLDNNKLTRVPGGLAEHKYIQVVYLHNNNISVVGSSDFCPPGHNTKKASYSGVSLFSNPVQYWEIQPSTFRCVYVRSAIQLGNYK

In the case of soluble Fc-tagged VEGFR3 (Fc fusion), the Kd (usually the free concentration of one partner at which half of the binding sites on the other are occupied at equilibrium, for simple one-to-one binding) in the experiment with decorin protein core amounted to 47 nM. That is a double-digit nanomolar value.

On to “VEGFC (from UniProt P49767 32-227) (ligand)”, for which the percent of bound decorin protein core displaced with soluble Fc-tagged VEGFR3 was 20%.

“decorin protein core (from UniProt P07585 31-359) (natural protein)” showed a Kd with soluble Fc-tagged VEGFR3 of 27 nM.
